Patent publication US20170275666A1, “Methods for Preparing Rebaudioside I and Uses” (The Coca-Cola Company, priority 2014, published 2017)
Substitutions are numbered along the chain they refer to. “And” between values parts separate entries of the source, which are not always exact repeats. Identical values can stand only once.

B1: UGT76G1var84: UGT76G1 variant, mutations F22L_Q266S_F314S_A352G_S357C (protein, UniProt Q6VAB4 1-458, looked up, variant F22L Q266S F314S A352G S357C)
UDP-glycosyltransferase 76G1: MENKTETTVRRRRRIILFPVPLQGHINPILQLANVLYSKGFSITIFHTNFNKPKTSNYPHFTFRFILDNDPQDERISNLPTHGPLAGMRIPIINEHGADELRRELELLMLASEEDEEVSCLITDALWYFAQSVADSLNLRRLVLMTSSLFNFHAHVSLPQFDELGYLDPDDKTRLEEQASGFPMLKVKDIKSAYSNWQILKEILGKMIKQTKASSGVIWNSFKELEESELETVIREIPAPSFLIPLPKHLTASSSSLLDHDRTVFSWLDQQPPSSVLYVSFGSTSEVDEKDFLEIARGLVDSKQSFLWVVRPGSVKGSTWVEPLPDGFLGERGRIVKWVPQQEVLAHGAIGGFWTHCGWNSTLESVCEGVPMIFSDFGLDQPLNARYMSDVLKVGVYLENGWERGEIANAIRRVMVDEEGEYIRQNARVLKQKADVSLMKGGSSYESLESLVSYISSL
B2: UGT76G1var85: UGT76G1 variant, mutations T284L_G348P_F377C_P382M_N409R (protein, UniProt Q6VAB4 1-458, looked up, variant T284L G348P F377C P382M N409R)
UDP-glycosyltransferase 76G1: B1 UDP-glycosyltransferase 76G1 with L22F, S266Q, T284L, S314F, G348P, G352A, C357S, F377C, P382M, N409R
B3: UGT76G1var87: UGT76G1 variant, mutations S241I_L243A_V300A_F314S_N409R (protein, UniProt Q6VAB4 1-458, looked up, variant S241I L243A V300A F314S N409R)
UDP-glycosyltransferase 76G1: B1 UDP-glycosyltransferase 76G1 with L22F, S241I, L243A, S266Q, V300A, G352A, C357S, N409R
B4: UGT76G1var90: UGT76G1 variant, mutations E231A_S241I_S274G_Y397Q_Q425E (protein, UniProt Q6VAB4 1-458, looked up, variant E231A S241I S274G Y397Q Q425E)
UDP-glycosyltransferase 76G1: B1 UDP-glycosyltransferase 76G1 with L22F, E231A, S241I, S266Q, S274G, S314F, G352A, C357S, Y397Q, Q425E
B5: UGT76G1var88: UGT76G1 variant, mutations A239V_T284I_V310I_Q342K_L379A (protein, UniProt Q6VAB4 1-458, looked up, variant A239V T284I V310I Q342K L379A)
UDP-glycosyltransferase 76G1: B1 UDP-glycosyltransferase 76G1 with L22F, A239V, S266Q, T284I, V310I, S314F, Q342K, G352A, C357S, L379A
B6: UGT76G1var86: UGT76G1 variant, mutations E224A_T284L_V396F_Y397E_I407V (protein, UniProt Q6VAB4 1-458, looked up, variant E224A T284L V396F Y397E I407V)
UDP-glycosyltransferase 76G1: B1 UDP-glycosyltransferase 76G1 with L22F, E224A, S266Q, T284L, S314F, G352A, C357S, V396F, Y397E, I407V
B7: UGT76G1var6: UGT76G1 variant, mutations Q266S_S357N_I373L (protein, UniProt Q6VAB4 1-458, looked up, variant Q266S S357N I373L)
UDP-glycosyltransferase 76G1: B1 UDP-glycosyltransferase 76G1 with L22F, S314F, G352A, C357N, I373L
B8: UGT76G1var93: UGT76G1 variant, mutations I43V_Q266E_S375M_S389E_V394I (protein, UniProt Q6VAB4 1-458, looked up, variant I43V Q266E S375M S389E V394I)
UDP-glycosyltransferase 76G1: B1 UDP-glycosyltransferase 76G1 with L22F, I43V, S266E, S314F, G352A, C357S, S375M, S389E, V394I
B9: UGT76G1var92: UGT76G1 variant, mutations K303G_S357N_V366I_V394I_I407V (protein, UniProt Q6VAB4 1-458, looked up, variant K303G S357N V366I V394I I407V)
UDP-glycosyltransferase 76G1: B1 UDP-glycosyltransferase 76G1 with L22F, S266Q, K303G, S314F, G352A, C357N, V366I, V394I, I407V
B10: UGT76G1var95: UGT76G1 variant, mutations A33G_I295M_K303G_I335V_A385T (protein, UniProt Q6VAB4 1-458, looked up, variant A33G I295M K303G I335V A385T)
UDP-glycosyltransferase 76G1: B1 UDP-glycosyltransferase 76G1 with L22F, A33G, S266Q, I295M, K303G, S314F, I335V, G352A, C357S, A385T
B11: UGT76G1var96: UGT76G1 variant, mutations F22L_E229A_L243P_F377C_A385T (protein, UniProt Q6VAB4 1-458, looked up, variant F22L E229A L243P F377C A385T)
UDP-glycosyltransferase 76G1: B1 UDP-glycosyltransferase 76G1 with E229A, L243P, S266Q, S314F, G352A, C357S, F377C, A385T
B12: UGT76G1var91: UGT76G1 variant, mutations E224A_L246F_T263S_F265I_Q342K (protein, UniProt Q6VAB4 1-458, looked up, variant E224A L246F T263S F265I Q342K)
UDP-glycosyltransferase 76G1: B1 UDP-glycosyltransferase 76G1 with L22F, E224A, L246F, T263S, F265I, S266Q, S314F, Q342K, G352A, C357S
B13: UGT76G1var89: UGT76G1 variant, mutations F41L_E229A_E231A_F265L_P272A (protein, UniProt Q6VAB4 1-458, looked up, variant F41L E229A E231A F265L P272A)
UDP-glycosyltransferase 76G1: B1 UDP-glycosyltransferase 76G1 with L22F, F41L, E229A, E231A, F265L, S266Q, P272A, S314F, G352A, C357S
B14: UGT76G1var7: UGT76G1 variant, mutations F22L_I43V_A239V (protein, UniProt Q6VAB4 1-458, looked up, variant F22L I43V A239V)
UDP-glycosyltransferase 76G1: B1 UDP-glycosyltransferase 76G1 with I43V, A239V, S266Q, S314F, G352A, C357S

Key:
[1] = Sensory characteristics of rebaudioside I compared to rebaudioside M (taste panel); assay type: in vivo; conditions: 400 ppm in water, approximately 4° C., seven panelists
Protocol: Rebaudioside I was evaluated to determine its sensory profile, including in comparison to rebaudioside M.
Samples were prepared at a concentration of 400 ppm in a water matrix. Analysis to determine the actual concentration of the samples was preformed.
Seven panelists participated in testing of rebaudioside I and rebaudioside M. Samples were served at approximately 4° C. Panelists were instructed to take 1 sip of the sample (10 mL), hold in mouth for 5 seconds, expectorate and rate the taste attributes, as described below. A 5 minute break was placed between each sample and panelist were instructed to cleanse their palates with at least 1 bite of an unsalted cracker and 2 sips of filtered water. Samples were randomized and each sample was present in replicate in the session.
Attributes evaluated included: sweet taste intensity (maximum level of sweeteness in mouth during 5 seconds); bitter taste intensity (maximum level of bitterness in mouth during 5 seconds); overall maximum sweet intensity (maximum sweet intensity experienced from time sip is taken up to 1 minute); overall maximum bitter intensity (maximum bitter intensity experienced from time sip is taken up to 1 minute); other intensity (intensity of any taste, aromatic or mouth feel other than sweet and bitter (e.g., metallic, plastic, licorice, etc.); sweet linger intensity (sweet intensity 1 minute after expectoring the sample); and bitter aftertaste intensity (bitter intensity one minute after expectoring the sample).
Fishers LSD was used to compare significant differences between the mean scores.

[2] = Taste properties of beverage formulations (flavored black tea, enhanced water, lemon-lime flavored sparkling beverage); assay type: in vivo
Protocol: Reb I levels are evaluated in an zero calorie Lemon-lime-flavored sparking beverage base to determine the effect of increasing sweetness. Samples of the Lemon-lime-flavored sparkling beverage with Reb I in amounts between 400 and 750 ppm (in 50 ppm increments) and 3.5% allulose are prepared. […] Samples having 550 ppm and 600 ppm Reb I are found to be the closest in sweetness level to an 10.0 Brix HFCS sweetened Lemon-lime flavored sparkling beverage formulation.

[3] = Directed evolution of UGT76G1, conversion of Rebaudioside D to Rebaudioside M (round 1); assay type: biochemical; conditions: 0.5 mM Rebaudioside D, 2.5 mM UDP-Glucose, 100 μL fresh lysate, 30° C., pH 7.2
Procedure, shortened: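 Conversion to Reb M and initial rate were measured by HPLC with CAD at 2, 4, 7 and 24 h, with reactions run at 30° C in 50 mM phosphate pH 7.2 containing 0.5 mM Reb D, 2.5 mM UDP-glucose and 3 mM MgCl2. Enzyme source: fresh lysates of E. coli BL21(DE3) expressing 3-5-mutation UGT76G1 variants.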

Molecule | Conversion Reb D to Reb M after 24 h (%) [3] | initial rate (Reb M area/min) [3] | further results
C=C1C[C@@]23CC[C@H]4[C@@](C)(CCC[C@@]4(C)C(=O)OC4OC(CO)C(O)C(OC5OC(CO)C(O)C(O)C5O)C4O)[C@@H]2CCC1(OC1OC(CO)C(O)C(OC2OC(CO)C(O)C(O)C2O)C1OC1OC(CO)C(O)C(O)C1O)C3 (stereo partly shown) [Reb I] |  |  | Bitter Aftertaste Intensity [1]: 1.3; Bitter Taste Intensity [1]: 1.4; Other Intensity [1]: 1.3; Overall Max Bitterness Intensity [1]: 2.1; Overall Max Sweetness Intensity [1]: 7.2; Sweet Linger Intensity [1]: 3.5; Sweet Taste Intensity [1]: 5.9; Overall Max Sweetness Intensity ([1]; listed as Rebaudioside I): lower; Sweet Linger Intensity ([1]; listed as Rebaudioside I): lower; Sweet Taste Intensity ([1]; listed as Rebaudioside I): lower; taste properties compared to Reb A drink ([2]; flavored zero calorie black tea drink, 275 ppm): much cleaner in finish with less sweetness linger and a more rounded overall sweetness profile; Reb I concentration closest in sweetness level to 10.0 Brix HFCS sweetened Lemon-lime flavored sparkling beverage ([2]; zero calorie Lemon-lime-flavored sparkling beverage with 3.5% allulose): 550 ppm and 600 ppm; taste compared to Reb A-containing formulations ([2]; zero calorie Lemon-lime-flavored sparkling beverage, 400 to 750 ppm Reb I and 3.5% allulose): significantly better than comparable Reb A-containing formulations; taste properties compared to Reb A drink ([2]; zero calorie enhanced water drink, 200 ppm): cleaner in finish and has a reduced sweetness linger and a more rounded overall sweetness taste quality
C=C1C[C@@]23CC[C@H]4[C@@](C)(CCC[C@@]4(C)C(=O)O[C@@H]4O[C@H](CO)[C@@H](O)[C@H](O[C@@H]5O[C@H](CO)[C@@H](O)[C@H](O)[C@H]5O)[C@H]4O[C@@H]4O[C@H](CO)[C@@H](O)[C@H](O)[C@H]4O)[C@@H]2CC[C@]1(O[C@@H]1O[C@H](CO)[C@@H](O)[C@H](O[C@@H]2O[C@H](CO)[C@@H](O)[C@H](O)[C@H]2O)[C@H]1O[C@@H]1O[C@H](CO)[C@@H](O)[C@H](O)[C@H]1O)C3 [Reb M, Rebaudioside M, reference compound] |  |  | Bitter Aftertaste Intensity [1]: 0.8; Bitter Taste Intensity [1]: 1.0; Other Intensity [1]: 0.9; Overall Max Bitterness Intensity [1]: 1.6; Overall Max Sweetness Intensity [1]: 8.0; Sweet Linger Intensity [1]: 4.9; Sweet Taste Intensity [1]: 7.4
B1 | 1.2% | 2.3E+05 Reb M area/min | 
B2 | 1.8% | 4.0E+05 Reb M area/min | 
B3 | 35.7% | 2.1E+07 Reb M area/min | 
B4 | 34.5% | 1.9E+07 Reb M area/min | 
B5 | 1.6% | 3.8E+05 Reb M area/min | 
B6 | 1.6% | 3.8E+05 Reb M area/min | 
B7 | 0.5% | 1.8E+06 Reb M area/min | 
B8 | 1.8% | 4.5E+05 Reb M area/min | 
B9 | 1.6% | 3.6E+05 Reb M area/min | 
B10 | −1.3% | −1.7E+05 Reb M area/min | 
B11 | 1.2% | 2.7E+05 Reb M area/min | 
B12 | 1.2% | 2.3E+05 Reb M area/min | 
B13 | 1.2% | 2.1E+05 Reb M area/min | 
B14 | 0.2% | −6.0E+04 Reb M area/min | 
